Common to all, as to assay: SPR; Biacore T200; […], single cycle kinetics, […]; 25°C; PBS, 0.05% Tween 20, 3.4 mM EDTA; 1:1 binding model; triplicate; […]
In general terms: In SPR one partner is held on a chip, and binding of the other changes the refractive index at the surface.

In assay [1] the target is SARS-CoV-2 B.1.351 (Beta) spike (S) receptor binding domain (SARS-CoV-2).
The target in assay [2] is SARS-CoV-2 B.1.617.2 (Delta) spike (S) receptor binding domain (SARS-CoV-2).
Assay [3] deals with SARS-CoV-2 B.1.1.529 (Omicron) spike (S) receptor binding domain (SARS-CoV-2).

This passage reports koff results from publication PMC8967028.

A word on the koff: it is a measure of how fast the partners let go of each other.

Turning to VHH-72-Fc L97W (Fc fusion), the koff in assay [1] stood at 0.0079 s⁻¹; in assay [2] it was 0.00081 s⁻¹.
As for VHH-72-Fc L97W,T99V (Fc fusion), the koff was 0.00056 s⁻¹ in assay [1], 0.00016 s⁻¹ in assay [2] and 0.061 s⁻¹ in assay [3].
Regarding VHH-72-Fc S56M (Fc fusion), the koff was found to be 0.013 s⁻¹ in assay [1] and 0.001 s⁻¹ in assay [2].
With VHH-72-Fc S56M,L97W (Fc fusion), the results for the koff in assay [1], in assay [2] and in assay [3] were 0.0025 s⁻¹, 0.00039 s⁻¹ and 0.7 s⁻¹, respectively.
On to VHH-72-Fc S56M,L97W,T99V (Fc fusion), for which the koff turned out to be 0.00039 s⁻¹ in assay [1], 0.00023 s⁻¹ in assay [2] and 0.007 s⁻¹ in assay [3].
In the case of VHH-72-Fc S56M,T99V (Fc fusion), the koff in assay [1] stood at 0.00068 s⁻¹; in assay [2], 0.00035 s⁻¹; in assay [3] it was 0.0252 s⁻¹.
Take VHH-72-Fc T99V (Fc fusion): the koff in assay [1] was 0.0077 s⁻¹; in assay [2], 0.00062 s⁻¹.
Turning to parental VHH-72-Fc (Fc fusion), the koff is 0.029 s⁻¹ in assay [1] and 0.0051 s⁻¹ in assay [2].
